These are literature values, as cited in patent publication EP4803095A2, “FORMULATIONS OF GLUCAGON-LIKE-PEPTIDE-2 (GLP-2) ANALOGUES” (Zealand Pharma A/S, priority 2018, dated 2026).

Where two headings read alike, the source gives them in different places.

The conditions of this series: for half-life in humans: background art.

“Hy-His-Ala-Asp-Gly-Ser-Phe-Ser-Asp-Glu-Met-Asn-Thr-Ile-Leu-Asp-Asn-Leu-Ala-Ala-Arg-Asp-Phe-Ile-Asn-Trp-Leu-Ile-Gln-Thr-Lys-Ile-Thr-Asp-OH [GLP-2 [1-33]]”: the half-life in humans entry was “around 7 minutes”. For the same substance, the half-life in humans entry (listed as native GLP-2) is reported as “seven”.

Take “teduglutide: GLP-2 analogue containing Gly substitution at position 2”: the half-life result (in vivo) was “about two”.

Turning to “GLP-2 [3-33]: truncated GLP-2 [3-33] (DGSFSDEMNTILDNLAARDFINWLIQTKITD; Glucagon-like peptide 2; UniProt P01275 148-178, looked up, fragment)”, the half-life in humans was ~27 min.
